The values that follow come from patent publication US20220340687A1.

This assay deals with high affinity IgE receptor (FcεR1) (human) (UniProt P12319). Description: flow cytometry of purified human pDCs, mean over all assayed donors. In general terms: A flow cytometer gives signals particle by particle.
Chain of high affinity IgE receptor (FcεR1) (human) (P12319 26-257): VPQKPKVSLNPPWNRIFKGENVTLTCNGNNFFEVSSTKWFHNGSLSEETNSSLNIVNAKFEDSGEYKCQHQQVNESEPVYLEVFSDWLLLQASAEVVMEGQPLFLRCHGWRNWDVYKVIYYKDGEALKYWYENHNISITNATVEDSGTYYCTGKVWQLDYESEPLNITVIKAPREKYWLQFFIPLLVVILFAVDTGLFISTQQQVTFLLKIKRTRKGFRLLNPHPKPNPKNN

Chain of human immunoglobulin E (IgE) (P01854 other isoform, or with tags, fused parts or gaps): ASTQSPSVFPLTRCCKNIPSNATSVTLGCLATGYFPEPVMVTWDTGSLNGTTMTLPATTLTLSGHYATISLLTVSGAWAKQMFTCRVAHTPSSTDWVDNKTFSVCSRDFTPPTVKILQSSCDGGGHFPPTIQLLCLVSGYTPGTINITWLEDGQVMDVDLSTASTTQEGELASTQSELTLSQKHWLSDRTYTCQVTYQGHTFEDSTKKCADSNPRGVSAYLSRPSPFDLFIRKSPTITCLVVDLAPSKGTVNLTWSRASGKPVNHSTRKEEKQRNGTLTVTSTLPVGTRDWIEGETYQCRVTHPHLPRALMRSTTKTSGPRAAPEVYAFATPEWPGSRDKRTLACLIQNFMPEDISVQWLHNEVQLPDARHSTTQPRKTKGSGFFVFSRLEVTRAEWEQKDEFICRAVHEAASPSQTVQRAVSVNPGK

Substance “human immunoglobulin E (IgE) (from UniProt P01854 1-428) (antibody)” gave a percentage of pDCs displaying IgE bound to FcεR1 of 45.7%.
